Results on seven molecules are retold here after patent US20250382344A1, “Soluble GLP1/GIP/NPY2 Receptor Triple Agonists” (Boehringer Ingelheim International GmH, priority 2024, published 2025).

*1 amine or outer side, *2 acyl side, *3 side chain or, on linkers, in order; H or OH if unused. Where no end group is shown, it is not given here. Side-chain parts run from the residue outwards. [ ]: non-standard residue; d: D form. The star is where a group is joined. C18 diacid = O=C(O)CCCCCCCCCCCCCCCCC(=O)*; γGlu = O=C(O)[C@H](CCC(=O)[*:2])N[*:1]; AEEA = NCCOCCOCC(=O)O; Aib = CC(C)(N)C(=O)O

Common to all, as to assay: cell-based or functional assay
Test [1] has as its target human GLP-1 receptor (human, UniProt P43220 24-463).
Test [2] deals with T1, human neuropeptide Y2 receptor (human, UniProt P49146 1-381).
T1 sequence (looked up): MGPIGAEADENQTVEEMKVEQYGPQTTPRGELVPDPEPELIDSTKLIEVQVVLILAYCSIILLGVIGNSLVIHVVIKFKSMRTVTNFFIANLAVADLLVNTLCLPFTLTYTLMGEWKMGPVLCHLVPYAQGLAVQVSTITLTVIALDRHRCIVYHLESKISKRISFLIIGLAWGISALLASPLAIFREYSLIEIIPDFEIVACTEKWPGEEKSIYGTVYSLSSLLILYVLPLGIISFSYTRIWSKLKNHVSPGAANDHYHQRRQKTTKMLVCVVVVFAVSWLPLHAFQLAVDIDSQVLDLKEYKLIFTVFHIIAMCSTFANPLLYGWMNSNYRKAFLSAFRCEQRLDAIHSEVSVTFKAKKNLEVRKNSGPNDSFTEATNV

Test [3] concerns the target human GLP-1 receptor (human, UniProt P43220 24-463). This is another data set of the same source.
The target in test [4] is T2, human neuropeptide Y2 receptor (human, UniProt P49146 1-381).
T2 sequence (looked up): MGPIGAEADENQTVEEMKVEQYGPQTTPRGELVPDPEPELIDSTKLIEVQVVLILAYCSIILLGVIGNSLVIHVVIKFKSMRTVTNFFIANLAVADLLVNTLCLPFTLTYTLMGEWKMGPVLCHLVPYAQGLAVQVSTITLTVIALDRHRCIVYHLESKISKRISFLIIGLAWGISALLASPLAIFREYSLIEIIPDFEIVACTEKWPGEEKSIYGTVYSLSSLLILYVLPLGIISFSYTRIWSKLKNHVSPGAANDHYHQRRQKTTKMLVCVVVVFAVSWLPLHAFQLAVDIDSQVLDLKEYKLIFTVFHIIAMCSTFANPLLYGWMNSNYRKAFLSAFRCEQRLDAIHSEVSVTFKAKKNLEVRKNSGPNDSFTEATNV
This is another data set of the same source.

The target in another test is T3, human GIP receptor (human, UniProt P48546 22-466).
T3 sequence (looked up): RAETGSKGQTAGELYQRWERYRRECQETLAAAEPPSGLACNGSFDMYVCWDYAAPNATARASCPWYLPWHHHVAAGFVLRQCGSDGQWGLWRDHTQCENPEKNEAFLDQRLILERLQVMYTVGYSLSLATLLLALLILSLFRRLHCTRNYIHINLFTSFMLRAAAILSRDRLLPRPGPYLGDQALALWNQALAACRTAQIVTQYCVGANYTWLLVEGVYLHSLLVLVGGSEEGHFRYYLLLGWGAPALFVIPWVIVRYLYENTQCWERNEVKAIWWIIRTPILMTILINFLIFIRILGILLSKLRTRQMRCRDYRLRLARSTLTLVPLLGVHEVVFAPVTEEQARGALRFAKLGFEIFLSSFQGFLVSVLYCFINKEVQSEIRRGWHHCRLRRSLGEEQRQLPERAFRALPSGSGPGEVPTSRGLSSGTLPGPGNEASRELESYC

As for Y[Aib]EGTFTSDYSI[Aib]LEEEAQ[Aib]AFVRHLINK([γGlu-γGlu-γGlu-γGlu-C18 diacid])[Aib]TRQRY-NH2 [Compound 25], in the test with human GLP-1 receptor [1], the “EC50, CreLuc reporter, 0.5% hP” value was found to be 0.7 nM and the “EC50, CreLuc reporter, 100% hP” value came out at 2 nM. In test [2], the “EC50, CreLuc reporter, 0.5% hP” value was found to be 89.2 nM and the “EC50, CreLuc reporter, 100% hP” value was 437 nM.

B1: Compound 130 (peptide)
peptide: Y[Aib]EGTFTSDYSI[Aib]LEEEAQ[Aib]EFVRHLINK([AEEA-AEEA-γGlu-C18 diacid])[Aib]TRQRY-NH2
modifications: N-terminus assumed
SMILES: CC[C@H](C)[C@H](NC(=O)[C@H](CC(C)C)NC(=O)[C@H](Cc1c[nH]cn1)NC(=O)[C@H](CCCNC(=N)N)NC(=O)[C@@H](NC(=O)[C@H](Cc1ccccc1)NC(=O)[C@H](CCC(=O)O)NC(=O)C(C)(C)NC(=O)[C@H](CCC(N)=O)NC(=O)[C@H](C)NC(=O)[C@H](CCC(=O)O)NC(=O)[C@H](CCC(=O)O)NC(=O)[C@H](CCC(=O)O)NC(=O)[C@H](CC(C)C)NC(=O)C(C)(C)NC(=O)[C@@H](NC(=O)[C@H](CO)NC(=O)[C@H](Cc1ccc(O)cc1)NC(=O)[C@H](CC(=O)O)NC(=O)[C@H](CO)NC(=O)[C@@H](NC(=O)[C@H](Cc1ccccc1)NC(=O)[C@@H](NC(=O)CNC(=O)[C@H](CCC(=O)O)NC(=O)C(C)(C)NC(=O)[C@@H](N)Cc1ccc(O)cc1)[C@@H](C)O)[C@@H](C)O)[C@@H](C)CC)C(C)C)C(=O)N[C@@H](CC(N)=O)C(=O)N[C@@H](CCCCNC(=O)COCCOCCNC(=O)COCCOCCNC(=O)CC[C@H](NC(=O)CCCCCCCCCCCCCCCCC(=O)O)C(=O)O)C(=O)NC(C)(C)C(=O)N[C@H](C(=O)N[C@@H](CCCNC(=N)N)C(=O)N[C@@H](CCC(N)=O)C(=O)N[C@@H](CCCNC(=N)N)C(=O)N[C@@H](Cc1ccc(O)cc1)C(N)=O)[C@@H](C)O
Take B1: the “EC50, CreLuc reporter, 100% hP” value with human GLP-1 receptor [3] amounted to 2.3 nM; in test [4], 789 nM; with human GIP receptor it was 10 nM. In addition, the “EC50, CreLuc reporter, 0.5% hP” value is 75 nM in test [4] and 0.5 nM with human GIP receptor.

Take Y[Aib]EGTFTSDYSI[Aib]LEKQAQ[Aib]AFVRHLINK([γGlu-γGlu-γGlu-γGlu-C18 diacid])[Aib]TRQRY-NH2 [Compound 77]: the “EC50, CreLuc reporter, 100% hP” value with human GLP-1 receptor [1] was 1.8 nM.

B2: Compound 72 (peptide)
peptide: YXEGTFTSDYSIXLEKQAQXAFVRHLINKXTRQRY
modifications: Aib at 2, 13, 20, 30; ArgMe at 34; Lys29 epsilon-amino acylated with C18DA-gGlu-gGlu-gGlu-gGlu-gGlu-gGlu-eLys; C-terminal amide
Consider B2, for which the “EC50, CreLuc reporter, 0.5% hP” value in the test with human GLP-1 receptor [1] was found to be 0.6 nM.

B3: Compound 147 (peptide)
peptide: YXEGTFTSDYSIXLDRQAQXAFVRHLINKXTRQRY
modifications: Aib at 2, 13, 20, 30; Lys29 epsilon-amino: C18DA-gGlu-gGlu-gGlu-gGlu-gGlu-gGlu-eLys; C-terminal amide
B3: the “EC50, CreLuc reporter, 0.5% hP” value in the test with human GLP-1 receptor [3] turned out to be 0.3 nM; in test [4] it was 11.1 nM; with human GIP receptor, 0.2 nM. Besides, the results for the “EC50, CreLuc reporter, 100% hP” value (with human GLP-1 receptor [3]; in test [4]; with human GIP receptor) were 2.3 nM, 86.3 nM and 5 nM, respectively.

B4: Compound 137 (peptide)
peptide: YXEGTFTSDYSIXLEKQAQXAFVRHLINKXTRQRY
modifications: Aib at 2, 13, 20, 30; Lys29 epsilon-amino: C18DA-TRX-gGlu-gGlu-gGlu-gGlu-gGlu-gGlu-eLys; C-terminal amide
Consider B4, for which the “EC50, CreLuc reporter, 100% hP” value with human GLP-1 receptor [3] was determined as 13.7 nM; in test [4] it was 46.4 nM. Besides, the entries for the “EC50, CreLuc reporter, 0.5% hP” value (in test [4]; in the test with human GIP receptor) were 20.1 nM and 0.5 nM, respectively.

B5: Compound 156 (peptide)
peptide: YXEGTFTSDYSAXLEKQAQXAFVRHLINKXTRQRY
modifications: Aib at 2, 13, 20, 30; Lys29 epsilon-amino: C18DA-gGlu-gGlu-gGlu-gGlu-gGlu-gGlu-eLys; C-terminal amide
Take B5: the “EC50, CreLuc reporter, 0.5% hP” value was determined as 7 nM in the test with human GLP-1 receptor [3], 16.3 nM in test [4] and 0.8 nM with human GIP receptor. Besides, the “EC50, CreLuc reporter, 100% hP” value amounted to 33.1 nM in the test with human GLP-1 receptor [3], 44.1 nM in test [4] and 14.8 nM with human GIP receptor.
